Each block holds one binder with its values, some of them ahead of it.
Molecular target: T1, GAL DBD-SMRT (RD III+IV), pGBT9-hSMRT (1060-1831) (human, UniProt P04386 1-147; Q9Y618 1060-1831)
T1 construct: domain: GAL DBD;range 1060-1831; Bait of the yeast two-hybrid screen and assays in strain Y190; also called SMRT repression domains III and IV; SMRT RD III and IV
Test: yeast two-hybrid, growth on -Trp-Leu-His+40 mM 3-AT plates
Protocol: (Verdel and Khochbin, 1999, supra)). A series of AD-HDAC constructs were generated for interaction assays in yeast. Transformants harboring both plasmids were picked and patched onto nutrient selection plates. Only cells that contain plasmids carrying an interacting partner are able to activate reporter gene HIS3 and therefore are viable in the selection plate -Trp-Leu-His+40 mM 3-AT. […] After three days, two isolated colonies were picked, resuspended in water, and […] were dropped on both -Trp-Leu and -Trp-Leu-His+40 mM 3-AT plates. Pictures were taken after three days.

binding result: no binding
B1: AD-HDAC3 (deacetylase domain of HDAC3, GAL AD fusion) (enzyme, UniProt O15379 3-316, looked up, not shown: large carriers)
chain: KTVAYFYDPDVGNFHYGAGHPMKPHRLALTHSLVLHYGLYKKMIVFKPYQASQHDMCRFHSEDYIDFLQRVSPTNMQGFTKSLNAFNVGDDCPVFPGLFEFCSRYTGASLQGATQLNNKICDIAINWAGGLHHAKKFEASGFCYVNDIVIGILELLKYHPRVLYIDIDIHHGDGVQEAFYLTDRVMTVSFHKYGNYFFPGTGDMYEVGAESGRYYCLNVPLRDGIDDQSYKHLFQPVINQVVDFYQPTCIVLQCGADSLGCDRLGCFNLSIRGHGECVEYVKSFNIPLLVLGGGGYTVRNVARCWTYETSLLVE
notes: domain: deacetylase domain

binding result: no binding
B2: AD-HDAC1 (deacetylase domain of HDAC1, GAL AD fusion) (enzyme, UniProt Q13547 9-321, looked up, not shown: large carriers)
chain: RKVCYYYDGDVGNYYYGQGHPMKPHRIRMTHNLLLNYGLYRKMEIYRPHKANAEEMTKYHSDDYIKFLRSIRPDNMSEYSKQMQRFNVGEDCPVFDGLFEFCQLSTGGSVASAVKLNKQQTDIAVNWAGGLHHAKKSEASGFCYVNDIVLAILELLKYHQRVLYIDIDIHHGDGVEEAFYTTDRVMTVSFHKYGEYFPGTGDLRDIGAGKGKYYAVNYPLRDGIDDESYEAIFKPVMSKVMEMFQPSAVVLQCGSDSLSGDRLGCFNLTIKGHAKCVEFVKSFNLPMLMLGGGGYTIRNVARCWTYETAVALD
notes: domain: deacetylase domain

— patent publication US6673587B1, “Histone deacetylase, and uses therefor” (The Salk Institute for Biological Studies, priority 2000, dated 2004)
